The stoichiometry N is a count of units in the complex or per binding partner.

Our source for the stoichiometry N values is article PMC5663973.

The target in the test is DHR2 domain of human DOCK5 (residues I1212-L1642) (human). Put plainly: SEC-SAXS; unbound DOCK5^DHR2 at 80 μM; BioSEC-3 column; 20 mM Tris pH 8.0, 150 mM NaCl, 0.5 mM EDTA; 295 K. In general terms: SEC sorts molecules by how far they enter the pores of the column.

In the case of “DHR2 domain of human DOCK5 (residues I1212-L1642) (domain or fragment)”, the stoichiometry N is 2.
